Measured values taken from article PMC3581573.

Biological target: Flag-HsPRMT5 (UniProt O14744)
Test: biotinylated peptide pull-down on streptavidin beads
Conditions: reference: unmodified H4 peptide; sites S1

## histone H4 1-20 (from UniProt P62805) H4 S1ph peptide
  binding against the reference: lost
